Results: the supplement of paper PMC9170038

Tested on: MS2 coat protein
Test: apparent KD of MS2 coat protein; designed switch direction (-1 OFF switch, 1 ON switch): -1; higher = weaker reporter binding
Summary of the method: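 Each step of the titration lasted 0.8–1.5 h at the lowest concentration and 10–20 min at the highest. The protein, SNAP-549-labelled MS2 coat protein, went from 0.7 or 1.5 nM doubling to 3 µM over RNA switches transcribed on Illumina chips by stalled E. coli RNA polymerase. Normalised cluster fluorescence was curve-fitted, and the per-design median over clusters is given as apparent KD.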

[1] = Eterna round: R95, input ligand: microRNA oligo, concentration not stated
[2] = Eterna round: R95, input ligand: FMN 200 uM
[3] = Eterna round: R95, input ligand: none
[4] = input ligand: microRNA oligo, concentration not stated

Sequence | apparent KD of MS2 coat protein [1] | apparent KD of MS2 coat protein (input ligand: FMN 200 uM) | apparent KD of MS2 coat protein (input ligand: none) | apparent KD of MS2 coat protein [2] | apparent KD of MS2 coat protein [3] | apparent KD of MS2 coat protein [4]
AAGGAACGAGGAUAUGCAGGUUGAGCUCGAGUUCGACCGGAACAUGAGGAUCACCCAUGUAGAAGGUGUAUCCC [Vedibe] (puzzle: Exclusion 2) | 24 nM |  |  |  |  | 
AAGGCGGUAGGAUAUACAUGAGGAUCACCCAUGUACGCGUGGAUCCCUGUGACGUCAAGUAGAAGGGCCAUAAA [Xetesobiar] (Eterna round: R97, puzzle: Exclusion 3) |  | 27.5 nM | 31.8 nM |  |  | 
AAGUACCGUCACGAAAGUGAUGGUACAGCAAGUAAAUGUACAUGAGGAUCACCCAUGUCCUCAAUUGCUCGUCUUAU [Sensor 3 - 59] (puzzle: Sensor v3, turn-off variant 2) | 173 nM |  |  | 185 nM | 212 nM | 
AAGUACCGUCACGAUAGUGAUGGUACAACAAGCAAAUAUACAUGAGGAUCACCCAUGUCCUCUUUUGCUCGUCUUGU [Sensor 3] (puzzle: Sensor v3, turn-off variant 2) | 237 nM |  |  | 798 nM | 900 nM | 
AAGUACCGUCACGAUAGUGAUGGUACAACAAGCAGGUGAACAUGAGGAUCACCCAUGUCCUCAAUUGCUCGUCUUAU [Sensor 3 - 73] (puzzle: Sensor v3, turn-off variant 2) | 48.3 nM |  |  | 156 nM | 159 nM | 
AAGUAGGGAGGAUAUACAUAGAUACAGAUUCAUGUAGAACUACAUGAGGAUCACCCAUGUAGAAGGCCCUAAUA [AJ 37] (Eterna round: R96, puzzle: Exclusion 2) |  | 255 nM | 27.9 nM |  |  | 25.1 nM
AAGUCGGCAGGAUAUACAUGAGGAUCACCCAUGUAAAUUUUUCGUUUAACUUGAAUGUGUAGAAGGGCCAUAAA [Ex3 #66] (Eterna round: R97, puzzle: Exclusion 3) |  | 24.3 nM | 24.5 nM |  |  | 
AAGUGCGAAGGAUAUACAUGAGGAUCACCCAUGUUCACCAAAACACAGGUCUCAGACUGUAGAAGGUCGCACAG [Eternabot (Original) Solution 45] (Eterna round: R97, puzzle: Exclusion 3) |  | 605 nM | 59.8 nM |  |  | 
AAGUUACAUGAGGAUCACCCAUGUGAGGAUAUGAGUCAGUCACGGUGACGUGGCUGACUCAGAAGGCACAAUGG [JL-ex1-4.41 salish99 mod] (Eterna round: R97, puzzle: Exclusion 1) |  | 43 nM | 290 nM |  |  | 
AAUAAACAUGAGGAUCACCCAUGUCAGGAUAUCCAUUUGUUUUUGUUGGUUUUUUUUUGGAGAAGGGACGCUUA [Lollin - Alpha 1] (puzzle: Exclusion 1) | 58.1 nM |  |  |  |  | 
AAUAAAGGAGGAUAUACUAAAAUAUGAAUAAAAUAAAUAAAACAUGAGGAUCACCCAUGUAGAAGGCCUAAUAA [JMF's Not so obvious solution 3] (puzzle: Exclusion 2) | 23.9 nM |  |  | 22.8 nM | 25.2 nM | 
AAUAACAAGCUGAUCCUAAACAUGAGGAUCACCCAUGUGUUCGUCUUGUAAAGUACUAUCACGAAAGUGAUAGUACA (Eterna round: R97, puzzle: Sensor, turn-off variant 1) |  | 75.2 nM | 80 nM |  |  | 
AAUAACAAGCUGAUCCUCCACAUGAGGAUCACCCAUGUGUUCGUCUUGUAAAGUACUAUCACGAAAGUGAUAGUACA (Eterna round: R97, puzzle: Sensor, turn-off variant 1) |  | 984 nM | 1630 nM |  |  | 
AAUAACAGAGGAUAUACUAUUUUAUGUAUUUAUUAUUUUGAACAUGAGGAUCACCCAUGUAGAAGGCUGAAUAA [JMF 20] (puzzle: Exclusion 2) | 19.9 nM |  |  |  |  | 
AAUAACAGAGGAUAUACUGUUUUAUGUAUUUAUUAUUUUAAACAUGAGGAUCACCCAUGUAGAAGGCUGAUUGA [JMF 71] (puzzle: Exclusion 2) | 26.8 nM |  |  |  |  | 
AAUAACAGAGGAUAUACUGUUUUAUGUGUUUAUUGUUUUAAACAUGAGGAUCACCCAUGUAGAAGGCUGAGUAA [JMF 32] (puzzle: Exclusion 2) | 33.5 nM |  |  |  |  | 
AAUAAGUGAGGAUAUACGUCUGGACCCGGGAGGGAAAUAAAACAUGAGGAUCACCCAUGUAGAAGGCACAAUAA [Excls2-III] (puzzle: Exclusion 2) | 13.5 nM |  |  | 17.5 nM | 16.9 nM | 
AAUAAGUGAGGAUAUCCAAUAAUAAAUAAAAUAAUAAAUAAGGAGAAGGCACAUGAGGAUCACCCAUGUAAUAA [JMF's solution 2] (puzzle: Exclusion 4) | 14.8 nM |  |  | 19 nM | 15.7 nM | 
AAUAAUAAAGUCAGGAUAUCUAGAGCCUCGGCUCUAGAGAAGGGACAUGAGGAUCACCCAUGUCACUCAAUAAU [BmEx4/3-D2] (Eterna round: R97, puzzle: Brourd's mod of Exclusion 4) |  | 20.2 nM | 17.7 nM |  |  | 
AAUAAUAAGGAGGAUAUCGUAUCCGAAAGGAUACGAGAAGGCCUAACAUGAGGAUCACCCAUGUUCCUCAAUAA [Mat - Exclusion 6 - Eli Mod - D54] (puzzle: Exclusion 6) | 264 nM |  |  | 773 nM | 267 nM | 
AAUACAAGCUAUUGAUCCCACAUGAGGAUCACCCAUGUAGAUGGCGGUGACACCUCCAUUACGAUAGCUCGUCUUAU [Sensor-V1 #57] (Eterna round: R97, puzzle: Sensor, turn-off variant 1) |  | 321 nM | 347 nM |  |  | 
AAUACAAGCUAUUGAUCCCACAUGAGGAUCACCCAUGUGCCUGGCCGUGAGACAAGGUUUACAAUAGCUCGUCUUAU [Sensor-V1 #46] (Eterna round: R97, puzzle: Sensor, turn-off variant 1) |  | 46.1 nM | 44.7 nM |  |  | 
AAUACAAGCUAUUGAUCCCACAUGAGGAUCACCCAUGUUCCUGGCCGUGAGGCUAGGUAAACAAUAGCUCGUCUUAU [Sensor-V1 #42] (Eterna round: R97, puzzle: Sensor, turn-off variant 1) |  | 91.2 nM | 99.8 nM |  |  | 
AAUAGCAAGCAGAUCCUAAACAUGAGGAUCACCCAUGUGCUCGUCUUGUAAAGUACUAUCACGAAAGUGAUAGUACA [Sensor 3, v1 - 61] (puzzle: Sensor v3, turn-off variant 1) | 326 nM |  |  | 118 nM | 88.3 nM | 
AAUAGUCAAGUUAGGAUAUUGCACCAGUGAUGGACCAAGAAGGAACAUGAGGAUCACCCAUGUGAACUCACGAC [Eternabot (Original) Solution 3] (Eterna round: R97, puzzle: Brourd's mod of Exclusion 4) |  | 344 nM | 40.8 nM |  |  | 
AAUAUACAUGUAGGAUAUCUGCACGAUUAGUGCAGAGAAGGACAUGAGGAUCACCCAUGUAAUUAAGAUCAAUUAUUAAAUAUU [ENG1/3-B1] (Eterna round: R96, puzzle: Exclusion NG 1) |  | 327 nM | 46.6 nM |  |  | 46.9 nM
AAUAUGUGAGGAUAUGCUUUAAGAAGAAUGAGUUUGAAAUAACAUGAGGAUCACCCAUGUAGAAGGCGCUAAAA [Lollin - Beta 1] (puzzle: Exclusion 2) | 19.3 nM |  |  | 19.4 nM | 25.9 nM | 
